The supplement of paper PMC5998384

How the values were obtained:
HeLa Kyoto [1] = experiment: melting temperature (median over replicates), in situ; higher = more thermally stable
HeLa Kyoto [2] = experiment: solubility in G1/S (NP-40 vs SDS abundance) (log2 ratio); higher = more soluble; details: cell cycle stage: G1/S
HeLa Kyoto [3] = experiment: solubility change mitosis vs G1/S (difference of NP-40 vs SDS log2 ratios) (log2 ratio difference); higher = more soluble in mitosis
HeLa Kyoto [4] = experiment: thermal stability score vs G1/S (z-score of summed log2 fold changes over temperatures); higher = more thermally stable than in G1/S
[5] = cell cycle stage: early G1 (4.5 h after nocodazole release)
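Throughout, for melting temperature (median over replicates), in situ: HeLa Kyoto cells synchronized by double thymidine or nocodazole block, proteins quantified by TMT10plex mass spectrometry, three independent biological replicates.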
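Throughout, for solubility change mitosis vs G1/S (difference of NP-40 vs SDS log2 ratios): synchronized HeLa Kyoto cells (double thymidine block for G1/S, nocodazole release for mitosis), protein amounts in NP-40 versus SDS lysates quantified by mass spectrometry, three biological replicates.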
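Throughout, for solubility in G1/S (NP-40 vs SDS abundance): HeLa Kyoto cells arrested at G1/S by double thymidine block, proteins quantified by TMT10plex mass spectrometry in mild NP-40 versus SDS extracts, three biological replicates.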
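Throughout, for thermal stability score vs G1/S (z-score of summed log2 fold changes over temperatures): synchronized HeLa Kyoto cells, proteins quantified by TMT10plex mass spectrometry, three biological replicates, mitosis taken 0.5 h after nocodazole release, G1/S directly after double thymidine block.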

Row | Sequence | melting temperature (HeLa Kyoto [1]; cell cycle stage: G1/S) [°C] | melting temperature (HeLa Kyoto [1]; cell cycle stage: mitosis) [°C] | solubility in G1/S (log2) (HeLa Kyoto [2]) | solubility change mitosis (log2) (HeLa Kyoto [3]) | thermal stability score (HeLa Kyoto [4]; [5]) | thermal stability score (HeLa Kyoto [4]; cell cycle stage: mitosis)
1 | MAQPGPASQPDVSLQQRVAELEKINAEFLRAQQQLEQEFNQKRAKFKELYLAKEEDLKRQNAVLQAAQDDLGHLRTQLWEAQAEMENIKAIATVSENTKQEAIDEVKRQWREEVASLQAVMKETVRDYEHQFHLRLEQERTQWAQYRESAEREIADLRRRLSEGQEEENLENEMKKAQEDAEKLRSVVMPMEKEIAALKDKLTEAEDKIKELEASKVKELNHYLEAEKSCRTDLEMYVAVLNTQKSVLQEDAEKLRKELHEVCHLLEQERQQHNQLKHTWQKANDQFLESQRLLMRDMQRMEIVLTSEQLRQVEELKKKDQEDDEQQRLNKRKDHKKADVEEEIKIPVVCALTQEESSAQLSNEEEHLDSTRGSVHSLDAGLLLPSGDPFSKSDNDMFKDGLRRAQSTDSLGTSGSLQSKALGYNYKAKSAGNLDESDFGPLVGADSVSENFDTASLGSLQMPSGFMLTKDQERAIKAMTPEQEETASLLSSVTQGMESAYVSPSGYRLVSETEWNLLQKEVHNAGNKLGRRCDMCSNYEKQLQGIQIQEAETRDQVKKLQLMLRQANDQLEKTMKDKQELEDFIKQSSEDSSHQISALVLRAQASEILLEELQQGLSQAKRDVQEQMAVLMQSREQVSEELVRLQKDNDSLQGKHSLHVSLQQAEDFILPDTTEALRELVLKYREDIINVRTAADHVEEKLKAEILFLKEQIQAEQCLKENLEETLQLEIENCKEEIASISSLKAELERIKVEKGQLESTLREKSQQLESLQEIKISLEEQLKKETAAKATVEQLMFEEKNKAQRLQTELDVSEQVQRDFVKLSQTLQVQLERIRQADSLERIRAILNDTKLTDINQLPET [RABEP1] | 51 | 50.4 | 0.412 | -0.0841 | -1 | -0.882
2 | MSRLGALGGARAGLGLLLGTAAGLGFLCLLYSQRWKRTQRHGRSQSLPNSLDYTQTSDPGRHVMLLRAVPGGAGDASVLPSLPREGQEKVLDRLDFVLTSLVALRREVEELRSSLRGLAGEIVGEVRCHMEENQRVARRRRFPFVRERSDSTGSSSVYFTASSGATFTDAESEGGYTTANAESDNERDSDKESEDGEDEVSCETVKMGRKDSLDLEEEAASGASSALEAGGSSGLEDVLPLLQQADELHRGDEQGKREGFQLLLNNKLVYGSRQDFLWRLARAYSDMCELTEEVSEKKSYALDGKEEAEAALEKGDESADCHLWYAVLCGQLAEHESIQRRIQSGFSFKEHVDKAIALQPENPMAHFLLGRWCYQVSHLSWLEKKTATALLESPLSATVEDALQSFLKAEELQPGFSKAGRVYISKCYRELGKNSEARWWMKLALELPDVTKEDLAIQKDLEELEVILRD [RMDN3] | 51.1 | 50.8 | -0.0304 | -0.102 | 0.252 | -0.0237
3 | MELQPPEASIAVVSIPRQLPGSHSEAGVQGLSAGDDSELGSHCVAQTGLELLASGDPLPSASQNAEMIETGSDCVTQAGLQLLASSDPPALASKNAEVTGTMSQDTEVDMKEVELNELEPEKQPMNAASGAAMSLAGAEKNGLVKIKVAEDEAEAAAAAKFTGLSKEELLKVAGSPGWVRTRWALLLLFWLGWLGMLAGAVVIIVRAPRCRELPAQKWWHTGALYRIGDLQAFQGHGAGNLAGLKGRLDYLSSLKVKGLVLGPIHKNQKDDVAQTDLLQIDPNFGSKEDFDSLLQSAKKKSIRVILDLTPNYRGENSWFSTQVDTVATKVKDALEFWLQAGVDGFQVRDIENLKDASSFLAEWQNITKGFSEDRLLIAGTNSSDLQQILSLLESNKDLLLTSSYLSDSGSTGEHTKSLVTQYLNATGNRWCSWSLSQARLLTSFLPAQLLRLYQLMLFTLPGTPVFSYGDEIGLDAAALPGQPMEAPVMLWDESSFPDIPGAVSANMTVKGQSEDPGSLLSLFRRLSDQRSKERSLLHGDFHAFSAGPGLFSYIRHWDQNERFLVVLNFGDVGLSAGLQASDLPASASLPAKADLLLSTQPGREEGSPLELERLKLEPHEGLLLRFPYAA [SLC3A2] | 59.8 | 60.5 | 0.345 | -0.0187 | -2.05 | -1.32
4 | MDDKELIEYFKSQMKEDPDMASAVAAIRTLLEFLKRDKGETIQGLRANLTSAIETLCGVDSSVAVSSGGELFLRFISLASLEYSDYSKCKKIMIERGELFLRRISLSRNKIADLCHTFIKDGATILTHAYSRVVLRVLEAAVAAKKRFSVYVTESQPDLSGKKMAKALCHLNVPVTVVLDAAVGYIMEKADLVIVGAEGVVENGGIINKIGTNQMAVCAKAQNKPFYVVAESFKFVRLFPLNQQDVPDKFKYKADTLKVAQTGQDLKEEHPWVDYTAPSLITLLFTDLGVLTPSAVSDELIKLYL [EIF2B1] | 57.1 | 55.4 | 0.101 | -0.134 | -1.83 | -1.69
5 | MRKPDSKIVLLGDMNVGKTSLLQRYMERRFPDTVSTVGGAFYLKQWRSYNISIWDTAGREQFHGLGSMYCRGAAAIILTYDVNHRQSLVELEDRFLGLTDTASKDCLFAIVGNKVDLTEEGALAGQEKEECSPNMDAGDRVSPRAPKQVQLEDAVALYKKILKYKMLDEQDVPAAEQMCFETSAKTGYNVDLLFETLFDLVVPMILQQRAERPSHTVDISSHKPPKRTRSGCCA [RAB20] | 54.4 | 53.8 | 0.0752 | -0.187 | 3.91 | 1.44
6 | MAAPALRLCHIAFHVPAGQPLARNLQRLFGFQPLASREVDGWRQLALRSGDAVFLVNEGAGSGEPLYGLDPRHAVPSATNLCFDVADAGAATRELAALGCSVPVPPVRVRDAQGAATYAVVSSPAGILSLTLLERAGYRGPFLPGFRPVSSAPGPGWVSRVDHLTLACTPGSSPTLLRWFHDCLGFCHLPLSPGEDPELGLEMTAGFGLGGLRLTALQAQPGSIVPTLVLAESLPGATTRQDQVEQFLARHKGPGLQHVGLYTPNIVEATEGVATAGGQFLAPPGAYYQQPGKERQIRAAGHEPHLLARQGILLDGDKGKFLLQVFTKSLFTEDTFFLELIQRQGATGFGQGNIRALWQSVQEQSARSQEA [HPDL] | 53.9 | 52.8 | 0.23 | -0.0348 | 1.41 | 0.476
7 | MAWRRREASVGARGVLALALLALALCVPGARGRALEWFSAVVNIEYVDPQTNLTVWSVSESGRFGDSSPKEGAHGLVGVPWAPGGDLEGCAPDTRFFVPEPGGRGAAPWVALVARGGCTFKDKVLVAARRNASAVVLYNEERYGNITLPMSHAGTGNIVVIMISYPKGREILELVQKGIPVTMTIGVGTRHVQEFISGQSVVFVAIAFITMMIISLAWLIFYYIQRFLYTGSQIGSQSHRKETKKVIGQLLLHTVKHGEKGIDVDAENCAVCIENFKVKDIIRILPCKHIFHRICIDPWLLDHRTCPMCKLDVIKALGYWGEPGDVQEMPAPESPPGRDPAANLSLALPDDDGSDDSSPPSASPAESEPQCDPSFKGDAGENTALLEAGRSDSRHGGPIS [RNF149] | 53.8 | 54.1 | -0.136 | -0.076 | -0.202 | -3.79
8 | MASVAVDPQPSVVTRVVNLPLVSSTYDLMSSAYLSTKDQYPYLKSVCEMAENGVKTITSVAMTSALPIIQKLEPQIAVANTYACKGLDRIEERLPILNQPSTQIVANAKGAVTGAKDAVTTTVTGAKDSVASTITGVMDKTKGAVTGSVEKTKSVVSGSINTVLGSRMMQLVSSGVENALTKSELLVEQYLPLTEEELEKEAKKVEGFDLVQKPSYYVRLGSLSTKLHSRAYQQALSRVKEAKQKSQQTISQLHSTVHLIEFARKNVYSANQKIQDAQDKLYLSWVEWKRSIGYDDTDESHCAEHIESRTLAIARNLTQQLQTTCHTLLSNIQGVPQNIQDQAKHMGVMAGDIYSVFRNAASFKEVSDSLLTSSKGQLQKMKESLDDVMDYLVNNTPLNWLVGPFYPQLTESQNAQDQGAEMDKSSQETQRSEHKTH [PLIN2] | 53.2 | 53.3 | 0.307 | 0.0233 | 0.285 | 0.347
9 | MSQAVQTNGTQPLSKTWELSLYELQRTPQEAITDGLEIVVSPRSLHSELMCPICLDMLKNTMTTKECLHRFCADCIITALRSGNKECPTCRKKLVSKRSLRPDPNFDALISKIYPSRDEYEAHQERVLARINKHNNQQALSHSIEEGLKIQAMNRLQRGKKQQIENGSGAEDNGDSSHCSNASTHSNQEAGPSNKRTKTSDDSGLELDNNNAAMAIDPVMDGASEIELVFRPHPTLMEKDDSAQTRYIKTSGNATVDHLSKYLAVRLALEELRSKGESNQMNLDTASEKQYTIYIATASGQFTVLNGSFSLELVSEKYWKVNKPMELYYAPTKEHK [RNF2] | 49.2 | 51.7 | -0.307 | 0.211 | 0.412 | 0.728
